Results published in patent publication US20090305971A1 (YALE UNIVERSITY, published 2009).
One block for each binder: values may come before it.

B1: Nogo-B receptor (NgBR), endogenous, on human umbilical vein endothelial cells (HUVEC) (receptor)
chain: SWLRVRFGTWNWIWRRCCRAASAAVLAPLGFTLRKPPAVGRNRRHHRHPRGGSCLAAAHHRMRWRADGRSLEKLPVHMGLVITEVEQEPSFSDIASLVVWCMAVGISYISVYDHQGIFKRNNSRLMDEILKQQQELLGLDCSKYSPEFANSNDKDDQVLNCHLAVKVLSPEDGKADIVRAAQDFCQLVAQKQKRPTDLDVDTLASLLSSNGCPDPDLVLKFGPVDSTLGFLPWHIRLTEIVSLPSHLNISYEDFFSALRQYAACEQRLGK
notes: The assays were done on untransfected HUVEC; also called native HUVEC; endogenous NgBR
B2: human Nogo-B receptor (NgBR), expressed from the cloned cDNA on transfected COS-7 or CHO cells (receptor)
chain: SWLRVRFGTWNWIWRRCCRAASAAVLAPLGFTLRKPPAVGRNRRHHRHPRGGSCLAAAHHRMRWRADGRSLEKLPVHMGLVITEVEQEPSFSDIASLVVWCMAVGISYISVYDHQGIFKRNNSRLMDEILKQQQELLGLDCSKYSPEFANSNDKDDQVLNCHLAVKVLSPEDGKADIVRAAQDFCQLVAQKQKRPTDLDVDTLASLLSSNGCPDPDLVLKFGPVDSTLGFLPWHIRLTEIVSLPSHLNISYEDFFSALRQYAACEQRLGK
notes: also called Am-Nogo receptor; Am-NgR
B6: AP-Am-Nogo-B (alkaline phosphatase fusion protein with residues 1-200 at the amino terminus of human Nogo-B) (ligand, UniProt Q9NQC3-2 1-200, looked up)
chain: MEDLDQSPLVSSSDSPPRPQPAFKYQFVREPEDEEEEEEEEEEDEDEDLEELEVLERKPAAGLSAAPVPTAPAAGAPLMDFGNDFVPPAPRGPLPAAPPVAPERQPSWDPSPVSSTVPAPSPLSAAAVSPSKLPEDDEPPARPPPPPPASVSPQAEPVWTPPAPAPAAPPSTPAAPKRRGSSGSVVVDLLYWRDIKKTGV
notes: range 1-200; also called full-length AP-Am-Nogo-B; APNogo200; not shown: placental alkaline phosphatase coding region of vector pcAP-5

Columns and labels:
[1] = biological target: T1, AP (recombinant alkaline phosphatase alone) (UniProt P05187 23-511); test: surface binding of AP proteins to HUVEC (FIG. 12)
T1 construct: Control protein without a Nogo part; also called AP alone
T1 sequence (P05187 23-511): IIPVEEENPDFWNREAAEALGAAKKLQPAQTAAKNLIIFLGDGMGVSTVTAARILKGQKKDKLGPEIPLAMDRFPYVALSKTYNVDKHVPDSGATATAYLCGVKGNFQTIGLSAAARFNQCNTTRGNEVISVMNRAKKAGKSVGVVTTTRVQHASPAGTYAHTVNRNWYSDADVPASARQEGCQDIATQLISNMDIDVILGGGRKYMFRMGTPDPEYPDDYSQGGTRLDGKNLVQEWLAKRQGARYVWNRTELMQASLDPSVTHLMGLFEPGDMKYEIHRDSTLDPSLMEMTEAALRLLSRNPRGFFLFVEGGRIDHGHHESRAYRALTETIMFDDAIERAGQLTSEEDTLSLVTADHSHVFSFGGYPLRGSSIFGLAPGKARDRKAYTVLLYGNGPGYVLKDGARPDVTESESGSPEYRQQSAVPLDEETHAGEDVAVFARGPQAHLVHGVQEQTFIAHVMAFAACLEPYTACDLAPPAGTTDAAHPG

[2] = biological target: T1, AP (recombinant alkaline phosphatase …); test: AP-fusion binding to COS cells transfected with the NgBR cDNA, AP staining (FIG. 6)
Description: To detect AP-Am-Nogo-B binding, cultures were washed with Hanks' balanced salt solution (HBSS) containing 20 mM HEPES, pH 7.5, and 1 mg/mL BSA (HBH). The plates were then incubated with AP-Am-Nogo-B in DMEM containing 20 mM Hepes, pH 7.5, and 1 mg/mL BSA for 2 hours at 4° C. The bound AP-Am-Nogo-B was detected by using the Blue Substrate kit (Vector Laboratories). The blue staining was examined by using the ODYSSEY Infrared Imaging System (Li-Cor, Lincoln, Nebr.) and confirmed by microscopy. Alternatively, the bound AP-Am-Nogo-B was extracted with Triton X-100, and AP activity was colorimetrically quantified by using p-nitrophenyl phosphate (Sigma) as substrate after heat inactivation of endogenous AP. Non-specific binding was determined by measuring binding in the presence of a 100-fold molar excess of recombinant Am-Nogo-B lacking the AP fusion protein. Specific binding was determined by subtracting the non-specific binding from total binding. For determination of apparent Kd, the binding of AP-Am-Nogo-B was measured in triplicate as described above and the Kd value was quantified by using the Scatchard plot program of GraphPad PRISM (one-site binding, linear regression) using the ratio of bound ligand to free ligand as the y axis and bound ligand (pM) as the x axis. […]

[3] = biological target: B2; test: surface binding of AP proteins to CHO cells expressing NgBR (FIG. 14)
[4] = biological target: B1; test: surface binding of AP proteins to HUVEC (FIG. 15)
[5] = biological target: B1; test: surface binding of AP proteins to HUVEC (FIG. 12)
[6] = biological target: B2; test: surface binding of AP proteins to CHO cells expressing NgBR (FIG. 11)
[7] = biological target: B6; test: blocking of AP-Am-Nogo-B binding to endothelial cells (FIG. 34)
[8] = biological target: B1; test: AP-fusion binding to HUVEC at 4 C, AP activity read-out, Scatchard plot (FIGS. 4 and 5)
Description: (§1) To detect AP-Am-Nogo-B binding, cultures were washed with Hanks' balanced salt solution (HBSS) containing 20 mM HEPES, pH 7.5, and 1 mg/mL BSA (HBH). The plates were then incubated with AP-Am-Nogo-B in DMEM containing 20 mM Hepes, pH 7.5, and 1 mg/mL BSA for 2 hours at 4° C. The bound AP-Am-Nogo-B was detected by using the Blue Substrate kit (Vector Laboratories). The blue staining was examined by using the ODYSSEY Infrared Imaging System (Li-Cor, Lincoln, Nebr.) and confirmed by microscopy. Alternatively, the bound AP-Am-Nogo-B was extracted with Triton X-100, and AP activity was colorimetrically quantified by using p-nitrophenyl phosphate (Sigma) as substrate after heat inactivation of endogenous AP. Non-specific binding was determined by measuring binding in the presence of a 100-fold molar excess of recombinant Am-Nogo-B lacking the AP fusion protein. Specific binding was determined by subtracting the non-specific binding from total binding. For determination of apparent Kd, the binding of AP-Am-Nogo-B was measured in triplicate as described above and the Kd value was quantified by using the Scatchard plot program of GraphPad PRISM (one-site binding, linear regression) using the ratio of bound ligand to free ligand as the y axis and bound ligand (pM) as the x axis.

[9] = biological target: B2; test: AP-fusion binding to CHO cells transiently transfected with NgBR cDNA, Scatchard plot (FIG. 7)
Description: as §1

Binder: B1
- binding result [1]: no binding

Binder: B2
- binding result [2]: no binding

- binding result [3]: no binding
- binding result [4]: no binding
B3: AP-Nogo-A (59-172) (ligand, UniProt Q9NQC3 59-172, looked up)
chain: PAAGLSAAPVPTAPAAGAPLMDFGNDFVPPAPRGPLPAAPPVAPERQPSWDPSPVSSTVPAPSPLSAAAVSPSKLPEDDEPPARPPPPPPASVSPQAEPVWTPPAPAPAAPPST
notes: also called AP-Am-Nogo-A domains; not shown: alkaline phosphatase part of the AP fusion

- binding result [5]: no binding
- binding result [6]: no binding
B4: AP-Nogo-B (amino acids 1-180) (ligand, UniProt Q9NQC3-2 1-180, looked up)
chain: MEDLDQSPLVSSSDSPPRPQPAFKYQFVREPEDEEEEEEEEEEDEDEDLEELEVLERKPAAGLSAAPVPTAPAAGAPLMDFGNDFVPPAPRGPLPAAPPVAPERQPSWDPSPVSSTVPAPSPLSAAAVSPSKLPEDDEPPARPPPPPPASVSPQAEPVWTPPAPAPAAPPSTPAAPKRRG
notes: range 1-180; Construction not described; also called AP-Nogo-B (1-180); not shown: alkaline phosphatase part of the AP fusion

- binding result [7]: binds
B5: mFc-ecto (Fc fusion of amino acids 52-116 of NgBR, HA- and heptahistidine-tagged) (Fc fusion)
chain: LGFTLRKPPAVGRNRRHHRHPRGGSCLAAAHHRMRWRADGRSLEKLPVHMGLVITEVEQEPSFSD
notes: Purified from conditioned media of mammalian cells; also called mFc fusion with the NgBR domain; mFc-NgBR-ectodomain; not shown: mFc, the Fc fragment of IgG; HA tag; heptahistidine tag

Binder: B6
- Kd [8]: 9.7 nM
- Kd [9]: 2.74 nM
